Test results published in patent US7674958B2 (Athenix Corporation, priority 2005, dated 2010).

B1: GRG23(L3P1.B20): GRG23 variant (SEQ ID NO:27), V206→I (protein)
chain: METDRLVIPGSKSITNRALLLAAAAKGTSVLVRPLVSADTSAFKTAIQALGANVSADGDNWVVEGLGQAPHLDADIWCEDAGTVARFLPPFVAAGQGKFTVDGSEQLRRRPLRPLVDGIRHLGARVSSEQLPLTIEASGLAGGEYEIEAHQSSQFASGLIMAAPYARQGLRVRIPNPVSQPYLTMTLRMMRDFGLETSTDGATVSIPPGRYTARRYEIEPDASTASYFAAASAVSGRSFEFQGLGTDSIQGDTSFFNVLGRLGAEVHWAPNSVTISGPERLNGDIEVDMGEISDTFMTLAAIAPLADGPITITNIGHARLKESDRISAMETNLRTLGVQTDVGHDWMRIYPSTPHGGRVNCHRDHRIAMAFSILGLRVDGITLDDPQCVGKTFPGFFDYLGRLFPEKALTLPG
modifications: grg23(L3P1.B20)
B2: GRG23(L3P1.F18): GRG23 variant (SEQ ID NO:31), T274→I (protein)
chain: METDRLVIPGSKSITNRALLLAAAAKGTSVLVRPLVSADTSAFKTAIQALGANVSADGDNWVVEGLGQAPHLDADIWCEDAGTVARFLPPFVAAGQGKFTVDGSEQLRRRPLRPLVDGIRHLGARVSSEQLPLTIEASGLAGGEYEIEAHQSSQFASGLIMAAPYARQGLRVRIPNPVSQPYLTMTLRMMRDFGLETSTDGATVSVPPGRYTARRYEIEPDASTASYFAAASAVSGRSFEFQGLGTDSIQGDTSFFNVLGRLGAEVHWAPNSVIISGPERLNGDIEVDMGEISDTFMTLAAIAPLADGPITITNIGHARLKESDRISAMETNLRTLGVQTDVGHDWMRIYPSTPHGGRVNCHRDHRIAMAFSILGLRVDGITLDDPQCVGKTFPGFFDYLGRLFPEKALTLPG
modifications: grg23(L3P1.F18)
B3: GRG23(L3P1.B3): GRG23 variant (SEQ ID NO:29), D75→H, E217→K (protein)
chain: METDRLVIPGSKSITNRALLLAAAAKGTSVLVRPLVSADTSAFKTAIQALGANVSADGDNWVVEGLGQAPHLDAHIWCEDAGTVARFLPPFVAAGQGKFTVDGSEQLRRRPLRPLVDGIRHLGARVSSEQLPLTIEASGLAGGEYEIEAHQSSQFASGLIMAAPYARQGLRVRIPNPVSQPYLTMTLRMMRDFGLETSTDGATVSVPPGRYTARRYKIEPDASTASYFAAASAVSGRSFEFQGLGTDSIQGDTSFFNVLGRLGAEVHWAPNSVTISGPERLNGDIEVDMGEISDTFMTLAAIAPLADGPITITNIGHARLKESDRISAMETNLRTLGVQTDVGHDWMRIYPSTPHGGRVNCHRDHRIAMAFSILGLRVDGITLDDPQCVGKTFPGFFDYLGRLFPEKALTLPG
modifications: grg23(L3P1.B3)

How the values were obtained:
Assay type in all cases: cell-based
[1] = system: E. coli strain DH5α with pUC18-Grg23 (pAX1927); assay: Growth on glyphosate plates, grg23-expressing cells; conditions: concentration to which resistance is conferred
Experimental: Isopropyl-B-D-thiogalactopyranoside (IPTG; 0.1 mM) was also added to the plates. As a control, cells containing pUC18 vector alone were transformed and streaked onto glyphosate plates.

[2] = system: E. coli cells containing pAX1967 (GRG51); assay: Glyphosate screen on M63+ plates, GRG51-expressing cells; conditions: 2 days, 37° C.
Experimental: Cells containing pAX1967 were plated onto M63+ plates containing antibiotic and either 0 mM or 20 mM glyphosate. Growth was scored after two days growth at 37° C.

BL21*DE3 E. coli cells = assay: Selection of mutant GRG23 enzymes conferring glyphosate resistance in E. coli on 150 mM glyphosate plates; conditions: clones selected on 150 mM glyphosate; extract activity equal to or superior to GRG23
Experimental: The mutagenized syngrg23 libraries were transformed into E. coli strain BL21*DE3 star (Invitrogen). Following transformation, individual colonies were plated on 1× M63 medium containing 150 mM glyphosate to select for clones that had retained enzymatic activity and growth tolerance.
The plates were incubated for 36 hours at 37° C.
Library plates of extracts of mutagenized syngrg23 clones were assayed for improved enzymatic activity as follows: Library clones were pinned into 96-well blocks containing LB medium and were grown to an O.D. of about 0.6. IPTG was then added (0.5 mM) and the blocks were incubated overnight at 20° C. to induce protein expression. Protein extracts were prepared from the cell pellets using POP culture reagent (Novagen), and the enzymatic activity in the crude lysates was measured. […] The DNA sequences of the clones corresponding to these extracts were determined.

Molecule	glyphosate resistance [1]	resistance to glyphosate [2] [mM]	Glyphosate resistance of GRG23 variants (BL21*DE3 E. coli cells)
O=C(O)CNCP(=O)(O)O [glyphosate, N-phosphonomethylglycine]	at least 100 mM	20	–
B1	–	–	retained glyphosate resistance
B2	–	–	retained glyphosate resistance
B3	–	–	retained glyphosate resistance
